According to publication PMC11065761:
Like-named read-outs stand apart in the source and are kept apart here.

Experiments:
Experiment in all cases: SPR
[1] = target: C3b
[2] = target: C4b biotinylated at the free sulfhydryl group of the thioester moiety
[3] = target: C3b; remark: listed apart in the source
[4] = target: C4b (amine coupled)
[5] = target: C3d (UniProt P01024)
C3d, sequence (P01024 1002-1303): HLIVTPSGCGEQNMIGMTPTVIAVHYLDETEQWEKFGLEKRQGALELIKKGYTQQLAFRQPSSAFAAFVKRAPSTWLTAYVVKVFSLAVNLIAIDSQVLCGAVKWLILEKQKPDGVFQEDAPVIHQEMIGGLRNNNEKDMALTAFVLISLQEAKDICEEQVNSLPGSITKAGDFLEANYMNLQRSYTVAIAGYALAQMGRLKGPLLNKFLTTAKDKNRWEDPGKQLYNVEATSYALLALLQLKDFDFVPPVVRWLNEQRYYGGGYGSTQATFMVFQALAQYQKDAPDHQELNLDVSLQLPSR

Full-length factor H (FH), sequence (P08603 19-1231): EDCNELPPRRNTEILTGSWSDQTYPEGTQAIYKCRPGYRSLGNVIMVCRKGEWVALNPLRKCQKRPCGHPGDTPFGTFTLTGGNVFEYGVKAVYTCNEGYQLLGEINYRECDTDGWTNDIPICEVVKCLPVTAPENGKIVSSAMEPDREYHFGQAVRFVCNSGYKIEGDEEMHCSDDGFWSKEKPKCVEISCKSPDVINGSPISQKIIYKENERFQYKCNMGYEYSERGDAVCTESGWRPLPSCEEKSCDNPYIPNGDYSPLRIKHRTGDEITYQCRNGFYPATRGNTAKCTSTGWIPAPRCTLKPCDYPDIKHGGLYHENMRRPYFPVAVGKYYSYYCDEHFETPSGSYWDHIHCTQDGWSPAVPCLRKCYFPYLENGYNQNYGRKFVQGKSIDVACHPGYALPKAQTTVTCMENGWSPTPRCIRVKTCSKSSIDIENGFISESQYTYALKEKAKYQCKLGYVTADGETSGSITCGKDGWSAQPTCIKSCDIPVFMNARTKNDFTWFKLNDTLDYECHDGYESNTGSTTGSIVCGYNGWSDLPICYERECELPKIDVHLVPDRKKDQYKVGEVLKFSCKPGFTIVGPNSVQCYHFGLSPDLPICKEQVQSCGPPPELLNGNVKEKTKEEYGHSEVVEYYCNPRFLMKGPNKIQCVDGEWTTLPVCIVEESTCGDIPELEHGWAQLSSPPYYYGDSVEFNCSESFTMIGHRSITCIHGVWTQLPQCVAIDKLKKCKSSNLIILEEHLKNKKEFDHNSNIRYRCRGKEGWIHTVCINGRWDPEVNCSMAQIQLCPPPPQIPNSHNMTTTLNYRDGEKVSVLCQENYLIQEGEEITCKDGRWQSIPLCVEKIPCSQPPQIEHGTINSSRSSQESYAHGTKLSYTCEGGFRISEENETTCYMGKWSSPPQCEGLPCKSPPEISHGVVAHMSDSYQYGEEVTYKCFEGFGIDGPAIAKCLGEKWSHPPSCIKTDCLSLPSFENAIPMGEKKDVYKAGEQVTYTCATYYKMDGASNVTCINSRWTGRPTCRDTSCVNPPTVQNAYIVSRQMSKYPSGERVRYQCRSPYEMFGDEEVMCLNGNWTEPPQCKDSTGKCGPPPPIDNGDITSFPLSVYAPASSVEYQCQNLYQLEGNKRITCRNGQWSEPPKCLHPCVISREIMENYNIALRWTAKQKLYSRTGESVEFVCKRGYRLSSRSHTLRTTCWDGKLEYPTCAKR

Row | Kd [1] | Kd [2] | Kd [3] | Kd [4] | Kd [5] | Substance
1 | 900 nM | 7800 nM |  |  |  | CR1(15–17), the middle CCP domains 15 to 17 of complement receptor 1 (domain or fragment)
2 | 11000 nM | 17600 nM |  |  |  | DAF(1–4), the first four CCP domains of decay accelerating factor (domain or fragment)
3 | 175 nM |  |  |  |  | DAF(1–4)FH(19–20)-LL (long linker, polyglycine linker of 13 residues)
4 | 125 nM |  |  |  |  | DAF(1–4)FH(19–20)-SL (short linker, "GPGG")
5 | 4700 nM |  |  |  |  | FH(19–20), the two C-terminal CCP domains of factor H (domain or fragment)
6 |  |  | 802 nM |  |  | Full-length factor H (FH) (from UniProt P08603 19-1231) (natural protein)
7 | 50 nM | 643 nM | 59 nM | 865 nM | 22000 nM | TriFu_6G (triple fusion complement inhibitor, 6 glycine residues between DAF and FH)
8 |  |  | 25 nM |  |  | TriFu_13G (triple fusion complement inhibitor, 13 glycine residues between DAF and FH)
